Assay [1] deals with T1, 6×His.mVEGF-B10-108 (murine, UniProt P49766 31-129).
T1 construct: not shown: additional 16 N-terminal amino acids with 6xHis tag and Genenase I cleavage site
T1 sequence: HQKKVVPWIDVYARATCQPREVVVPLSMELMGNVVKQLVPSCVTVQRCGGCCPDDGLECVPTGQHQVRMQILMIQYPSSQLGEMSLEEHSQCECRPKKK
In words: ELISA on plate-bound antigen, HRP secondary, TMB. The method, then:
(§1) Monoclonal antibodies raised against hVEGF-B were tested for cross-reactivity with mVEGF-B using a standard ELISA format. mAbs were incubated with plate bound hVEGF-B₁₀₋₁₀₈ or 6×His.mVEGF-B₁₀₋₁₀₈ at a concentration of 1.25 μg/ml and bound mAb visualized using a HRP-conjugated secondary reagent and TMB substrate.

The target of a further assay is T2, human VEGF-B10-108 (human, UniProt P49765 31-129).
T2 construct: also called VB108
T2 sequence: T1 sequence with K3R, P7S, A13T, S27T, M28V, N33T, V35A, Q75R
In words: SPR (BIAcore 2000), VEGF-B10-108 amine-coupled on chip, mAb injected 125-0.98 nM. The procedure: A Biosensor-based approach was used for kinetic analysis of mAb binding to target VEGF-B using a BIAcore™ 2000 surface plasmon resonance instrument (Biacore AB, Uppsala, Sweden). A biosensor chip was activated for covalent coupling of VEGF-B using N-ethyl-N′-(3-dimethylaminopropyl)-carbodiimide hydrochloride (EDC) and N-hydroxysuccinimide (NHS) according to the supplier's (Biacore AB, Uppsala, Sweden) instructions. A solution of 5 μg/ml VEGF-B₁₀₋₁₀₈ in 20 mM sodium acetate, pH 4.8 was prepared and an aliquot (35 μl) was injected at a flow rate of 2 μl/min to achieve approximately 500-600 response units (RU) of coupled protein. Finally, 1 M ethanolamine was injected as a blocking agent.
For kinetics measurements, two-fold serial dilutions of test antibody starting at 125n M to 0.98 nM were injected in BIAcore™ buffer (20 mM HEPES, pH 7.8, 0.15 M NaCl, 3.4 mM EDTA, 0.005% Tween-20) with 1 mg/ml bovine serum albumin (BSA) at 25° C. at a flow rate of 15 μl/min. Simultaneous analysis of association (kₐ) and dissociation (kd) rate constants using BIAevaluation™ V3.02 software (Biacore AB, Uppsala, Sweden) was used to determine the equilibrium binding constant (KD).

In assay [2] the target is T1, 6×His.mVEGF-B10-108. In words: ELISA on plate-bound 6×His.mVEGF-B10-108. The method, then: as §1
Assay [3] deals with human VEGF-B (Example 10, form not stated) (human) (UniProt P49765). Description: SPR (BIAcore), immobilised human VEGF-B, Fab injected at several concentrations. For orientation: In SPR one partner is held on a chip, and binding of the other changes the refractive index at the surface.
For assay [4] the target is unchanged. In words: BIAcore dissociation rate, ratio.
Assay [5] has the same target. In words: competition ELISA, plate bound human VEGF-B, soluble VEGF-B titrated. On the technique in general: An ELISA detects its analyte on a solid surface through an enzyme-linked reagent.
Assay [6] has the same target. In words: SPR (BIAcore), immobilised human VEGF-B.

Substitutions are numbered along the chain they refer to.

B1: murine monoclonal antibody 4E12 (antibody, V domains shown)
VH: QVQPQQPGAELVKPGASVKMSCKASGDTFTNSWIGWVTQRPGQGLEWIGDIFPGSGHTNYNEKFKNRATLTVDTSSSTAYMLLSSLTSDDSAVYYCVIENYAWFAYWGQGTLVTVSA
VL: DIVMTQSQKFMSSSVGDRVSVTCKASQNVNTNVAWYQQKQGQSPRPLIYSASSRCSGVPDRFTGSGFGTDFTLTISNVQSEDLAEYFCQQYHSFPLTFGAGAKLDLK
notes: Whole murine mAb from hybridoma; also called mAb 4E12
With B1, the binding result in the assay with 6×His.mVEGF-B10-108 [1] is “no binding (tested: 1.25 µg/ml)”. Further, in the assay with human VEGF-B10-108, the affinity, expressed as Kd, was 2.71 nM; the koff (in general, the rate constant with which the complex falls apart) came to 0.000132 s⁻¹; the kon (usually the second-order rate constant of association) was 48700 M⁻¹ s⁻¹.

B2: murine monoclonal antibody 1C6 (antibody, V domains shown)
VH: QVQLQQSGPELVKPGASVRISCKASGYTFTTFYIHWVKQRPGQGLEWIAWFYPGNVNTNYNEKFKDKATLTADKSSSAAYLQLNSLTSEDSAVYFCTRSPYYGYVFDFWGQGTTLTVSS
VL: DIVMTQSHKFMSTSVGDRVSITCKASQDVGSAVAWYQQKPGQSPKLLIYWASTRHTGVPDRFTGSGSGTDFTFTISNVQSEDLADYFCQQYSSSLTFGAGATKLEL
notes: Whole murine mAb from hybridoma; also called mAb 1C6
Take B2: the binding result with 6×His.mVEGF-B10-108 [2] is on record as “binds”. In the assay with human VEGF-B10-108, the Kd (commonly a measure of binding affinity in units of concentration) was found to be 2.82 nM, the koff was determined as 0.000153 s⁻¹ and the kon is 54500 M⁻¹ s⁻¹.

B3: 2H10 murine Fab (Fab, V domains shown)
VH: QVQLQQPGTELVKPGASVKLSCKASGYTFTGFWIHWVKQRPGQGLEWIGHINPGNGGTNYNEKFKRMATLTVDKSSSTAYMQLSSLTSEDSAVYYCARSYSNYVRAMDYWGQGTSVTVSS
VL: EIQMTQTTSSLSASLGDRVTISCRASQDISNFLNWYQQKPDGTVKLLIYYTSTLHSGVPSRFSGSGSGTDYSLTISNLEQEDIATYFCQQGKTLPPTFGGGTKLEIK
Consider B3, for which, in assay [3], the Kd is 0.115 nM.

B4: mouse-human chimeric Fab (2H10) (Fab, V domains shown)
VH: B3 VH
VL: B3 VL
With B4, in assay [4], the Relative koff (koff CDR-Fab variant/koff murine-human chimera) was found to be 1. In assay [5], this molecule registered a Relative VEGF-B binding affinity (IC50 CDR-Fab variant/IC50 murine-human chimera) of 1.

B5: murine monoclonal antibody 2H10 (antibody, V domains shown)
VH: B3 VH
VL: B3 VL
notes: Whole murine mAb from hybridoma; also called mAb 2H10
Consider B5, for which, in the assay with 6×His.mVEGF-B10-108 [2], the binding result is given as “binds”. In the assay with human VEGF-B10-108, the Kd was found to be 0.18 nM, the koff was found to be 6.77e-05 s⁻¹ and the kon turned out to be 385000 M⁻¹ s⁻¹.

B6: 2H10 CDR-grafted human germline Fab (CDR-Fab) (Fab, V domains shown)
VH: QVQLVQSGAEVKKPGASVKVSCKASGYTFTGFWIHWVRQAPGQGLEWMGHINPGNGGTNYNEKFKRRVTMTRDTSISTAYMELSRLRSDDTAVYYCARSYSNYVRAMDYWGQGTLVTVSS
VL: DIQMTQSPSSLSASVGDRVTITCRASQDISNFLNWYQQKPGKAPKLLIYYTSTLHSGVPSRFSGSGSGTDFTLTISSLQPEDFATYYCQQGKTLPPTFGGGTKVEIK
As for B6, the Relative koff (koff CDR-Fab variant/koff murine-human chimera) in assay [4] turned out to be 3.7. Also, in assay [5], the Relative VEGF-B binding affinity (IC50 CDR-Fab variant/IC50 murine-human chimera) was 2.25. Besides, the Kd in assay [3] stood at 0.66 nM.

B7: CDR-Fab framework variant H73 (Fab, V domains shown)
VH: B6 VH with T74K
VL: B6 VL
Take B7: the Relative koff (koff CDR-Fab variant/koff murine-human chimera) in assay [4] is 1.4. In assay [6], this molecule returned a dissociation constant Kd of 0.337 nM and a fold of KD against the 2H10 murine Fab of less than 3 fold. Moreover, the Relative VEGF-B binding affinity (IC50 CDR-Fab variant/IC50 murine-human chimera) in assay [5] came to 1.42.
